# Reference: PMC4014440
# Target: FLAG epitope tagged DLK-1 K162R (FLAG::DLK-1L K162R) (C. elegans)
# Experiment: co-IP; FLAG::DLK-1 K162R immunoprecipitated from 5 mg of transgenic whole worm lysate (0.1% NP-40 lysis buffer); wild-type or mutant PPM-2::GFP detected by anti-GFP immunoblot; bands quantified with Image J as ratio of PPM-2::GFP in coIP to FLAG::DLK-1 K162R immunoprecipitated
row,ratio of PPM-2::GFP in coIP to FLAG::DLK-1 K162R immunoprecipitated,Binder
1,1.5,PPM-2::GFP R185A (phosphatase trapping mutant of PPM-2) (enzyme) MGQTLSEPVTKKESASCANENYLVGSSCMQGWRVDMEDAHTHLLSLPDDPKCAFFAVYDGHGGSKVSQYSGINLHKKVVAQKEFSEGNMKEAIEKGFLELDQQMRVDEETKDDVSGTTAVVVLIKEGDVYCGNAGDSRAVSSVVGEARPLSFDHKPSHETEARRIIAAGGWVEFNRVNGNLALSAALGDFAFKNCDTKPAEEQIVTAFPDVITDKLTPDHEFIVLACDGIWDVMTNQEVVDFVREKLAEKRDPQSICEELLTRCLAPDCQMGGLGCDNMTVVLVGLLHGQSPDTLFTKCARPAVFTGVNNEDGDQNQIQQDISRVINNFDGEQRVNAANQEEEEDDNEPAPANFQV
2,0.4,PPM-2::GFP (GFP fusion protein of wild-type PPM-2) (enzyme) MGQTLSEPVTKKESASCANENYLVGSSCMQGWRVDMEDAHTHLLSLPDDPKCAFFAVYDGHGGSKVSQYSGINLHKKVVAQKEFSEGNMKEAIEKGFLELDQQMRVDEETKDDVSGTTAVVVLIKEGDVYCGNAGDSRAVSSVVGEARPLSFDHKPSHETEARRIIAAGGWVEFNRVNGNLALSRALGDFAFKNCDTKPAEEQIVTAFPDVITDKLTPDHEFIVLACDGIWDVMTNQEVVDFVREKLAEKRDPQSICEELLTRCLAPDCQMGGLGCDNMTVVLVGLLHGQSPDTLFTKCARPAVFTGVNNEDGDQNQIQQDISRVINNFDGEQRVNAANQEEEEDDNEPAPANFQV
